Values belong to the compound of their own block, whether it stands above or below them.
Assays:
[1] = target: T1, SapH (Streptomyces albus, UniProt A0ACH0CL42); test: relative activity by HPLC, coupled with SapB; assay type: biochemical; conditions: amino donor 5 mM, 1.5 mM uridine, 1 μM SapB, 2 μM SapH, pH 7.5
T1 construct: gene NR995_03130; homodimer

[2] = target: T2, SapB (Streptomyces albus, UniProt A0ACH0CL45); test: LC/MS of cofactor released by boiling; assay type: binding; conditions: copurified, tightly bound
T2 construct: gene NR995_03120; N-terminal His6-tag, codon-optimized synthetic gene in pBADHisBd, E. coli TOP10
T2 sequence (A0ACH0CL45 1-509): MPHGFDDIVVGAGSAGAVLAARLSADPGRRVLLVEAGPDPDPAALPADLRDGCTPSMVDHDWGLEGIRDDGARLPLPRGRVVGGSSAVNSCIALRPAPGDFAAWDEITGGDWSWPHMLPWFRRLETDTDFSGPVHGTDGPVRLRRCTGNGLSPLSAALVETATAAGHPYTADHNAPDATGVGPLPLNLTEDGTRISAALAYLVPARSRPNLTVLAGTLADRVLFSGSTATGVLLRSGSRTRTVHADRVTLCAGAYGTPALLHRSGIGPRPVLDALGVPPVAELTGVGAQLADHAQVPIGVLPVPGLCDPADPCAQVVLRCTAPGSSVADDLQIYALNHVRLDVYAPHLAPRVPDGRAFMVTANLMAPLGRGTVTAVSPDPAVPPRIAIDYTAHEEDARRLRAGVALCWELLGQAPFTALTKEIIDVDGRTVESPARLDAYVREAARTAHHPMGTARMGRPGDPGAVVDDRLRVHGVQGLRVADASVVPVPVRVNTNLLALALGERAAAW

[3] = target: T1, SapH; test: X-ray crystallography, […] Å; assay type: binding; conditions: active site at dimer interface; non-covalent (no link to Lys289); crystals pH 7.5, 20 °C
[4] = system: O=c1[nH]c(=O)c([C@@H]2O[C@H](CO)[C@@H](O)[C@H]2O)co1; test: purified protein; conditions: 50 mM Tris-HCl pH 7.5, 10 mM NaCl, 10 mM KCl, 5 mM MgCl2, O2 as electron acceptor
[5] = system: O=c1[nH]cc([C@@H]2O[C@H](CO)[C@@H](O)[C@H]2O)c(=O)[nH]1; test: purified protein; conditions: 50 mM Tris-HCl pH 7.5, 10 mM NaCl, 10 mM KCl, 5 mM MgCl2, O2 as electron acceptor
[6] = target: SapH (Streptomyces albus DSM 40763); test: crystal structure; hanging drop vapour diffusion at 20 °C; SapH 9.9 mg/mL in 50 mM TAPS pH 8.5, 250 mM NaCl, 10% glycerol; well 0.1 M BisTRIS-propane, 0.2 M Na-K-phosphate, 27.5% PEG3350, pH 7.5; space group P212121; dimer in the asymmetric unit

T1 sequence (A0ACH0CL42 entry or part of it): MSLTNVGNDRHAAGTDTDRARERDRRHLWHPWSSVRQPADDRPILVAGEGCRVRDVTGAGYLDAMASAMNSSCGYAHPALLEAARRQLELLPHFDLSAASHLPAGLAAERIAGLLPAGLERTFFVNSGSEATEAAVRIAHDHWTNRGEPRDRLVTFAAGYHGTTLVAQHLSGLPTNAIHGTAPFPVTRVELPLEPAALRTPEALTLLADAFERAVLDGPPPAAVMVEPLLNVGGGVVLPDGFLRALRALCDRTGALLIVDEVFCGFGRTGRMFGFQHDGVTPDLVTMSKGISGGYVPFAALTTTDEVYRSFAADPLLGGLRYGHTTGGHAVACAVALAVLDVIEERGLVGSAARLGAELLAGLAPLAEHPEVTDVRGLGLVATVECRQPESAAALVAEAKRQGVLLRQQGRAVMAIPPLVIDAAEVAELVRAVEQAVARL

Compound: N=C(N)NCCC[C@H](N)C(=O)O [arginine]
relative activity by HPLC, coupled with SapB [1]: shows preference for methionine, phenylalanine, and arginine

Compound: Cc1cc2nc3c(=O)[nH]c(=O)nc-3n(C[C@H](O)[C@H](O)[C@H](O)COP(=O)(O)OP(=O)(O)OC[C@H]3O[C@@H](n4cnc5c(N)ncnc54)[C@H](O)[C@@H]3O)c2cc1C [flavin adenine dinucleotide]
LC/MS of cofactor released by boiling [2]: LC/MS) analysis identified the SapB cofactor to be flavin adenine dinucleotide (FAD)

Compound: Cc1ncc(COP(=O)(O)O)c(CN)c1O [pyridoxamine-5′-phosphate]
X-ray crystallography, 1.55 Å [3]: The bound PLP was modeled as pyridoxamine, according to the observed electron density map

Compound: SapB (Streptomyces albus)
Km [4]: 181 ± 25 µM
kcat [4]: 0.0172 s⁻¹
kcat/Km [4]: 95 M⁻¹ s⁻¹
Km [5]: 34 ± 5 µM
kcat [5]: 0.019 s⁻¹
kcat/Km [5]: 550 M⁻¹ s⁻¹

stoichiometry N [6]: 2
Compound: SapH (enzyme)

From publication PMC10127198, “Pseudouridine-Modifying Enzymes SapB and SapH Control Entry into the Pseudouridimycin Biosynthetic Pathway” (ACS Chemical Biology, 2023)
